Experimental findings from patent publication US20130315928A1 (published 2013) are described below.

Experiment [1] deals with porcine follicle-stimulating hormone (porcine, UniProt P01219 25-120; P01228 21-129). In words: ELISA, hormone adsorbed at 2 µg/ml, anti-IgM peroxidase; relative to oFSH. The procedure:
(§1) After washing five times, a secondary antibody (peroxidase-coupled mouse anti-IgM, Jackson Laboratories) was incubated for 1 h at 37° C. (100 μl/well). After washing five times, the peroxidase is developed with TMB (100 μl/well), for 30 min at room temperature and then stopped with 1M H₂SO₄ (50 μl/well).

Experiment [2] deals with bovine follicle-stimulating hormone (bovine, UniProt P01217 25-120; P04837 21-129). The description is as above. The procedure:
as §1

Experiment [3] deals with T1, human follicle-stimulating hormone (human, UniProt P01215 25-116; P01225 19-129).
T1 construct: Alpha/beta heterodimer; also called hFSH; human FSH
T1 sequence (P01215 25-116, chain 1 of 2): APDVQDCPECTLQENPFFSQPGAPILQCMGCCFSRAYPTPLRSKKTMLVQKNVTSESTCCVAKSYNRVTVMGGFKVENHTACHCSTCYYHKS
T1 sequence (P01225 19-129, chain 2 of 2): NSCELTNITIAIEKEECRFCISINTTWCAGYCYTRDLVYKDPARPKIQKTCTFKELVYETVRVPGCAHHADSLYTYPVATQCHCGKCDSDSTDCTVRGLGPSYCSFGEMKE
Described as above. As for the experimental part:
as §1

Experiment [4] concerns the target porcine luteinizing hormone (porcine, UniProt P01219 25-120; P01232 21-141). In words: ELISA, hormone adsorbed at 2 µg/ml, anti-IgM peroxidase; relative to oLH. The procedure:
as §1

The target in experiment [5] is T2, human chorionic gonadotropin (human, UniProt P01215 25-116; P0DN86 21-165).
T2 construct: Alpha/beta heterodimer; also called hCG
T2 sequence (P01215 25-116, chain 1 of 2, other chains not shown): as the sequence (P01215 25-116, chain 1 of 2) above
The description is as above. The procedure:
as §1

In experiment [6] the target is bovine luteinizing hormone (bovine, UniProt P01217 25-120; P04651 21-141). The experiment is described as above. The procedure:
as §1

The target of experiment [7] is T3, ovine luteinizing hormone (ovine, UniProt P01218 25-120; P01231 21-141). In words: cell-based or functional assay.
Experiment [8] addresses T4, ovine follicle-stimulating hormone (ovine, UniProt P01218 25-120; P01227 20-129). Kind of experiment: cell-based or functional assay.
Experiment [9] concerns the target T3, ovine luteinizing hormone. Kind of experiment: ELISA, hormone adsorbed at 2 µg/ml, MAb at 0.1-1-10 µg/ml, anti-IgM peroxidase; oLH is the 100% reference.
The target in experiment [10] is T4, ovine follicle-stimulating hormone. Kind of experiment: ELISA, hormone adsorbed at 2 µg/ml, MAb at 0.1-1-10 µg/ml, anti-IgM peroxidase; oFSH is the 100% reference.
Experiment [11] addresses T5, equine choriogonadotropin (eCG) or PMSG (equine, UniProt P01220 25-120; P08751 21-169).
T5 construct: They are written as one protein; also called commercial eCG (Synchro Part, CEVA); purified eCG (6000 IU/mg)
In words: ELISA on adsorbed commercial eCG. The procedure:
as §1
(§2) In the same way, the antibodies were evaluated on the commercial eCG (Synchro Part, CEVA, Libourne, France) used in treatments for induction of ovulation in sheep and goats. An isotypic control (IgM directed against another type of antigen very remote from the gonadotropic hormones). Each antibody was incubated at a concentration of 10 μg/ml and 1 μg/ml.

The target of experiment [12] is T5, equine choriogonadotropin (eCG) or PMSG. Kind of experiment: ELISA on commercial eCG, antibody at 10 µg/ml. As for the experimental part:
as §1, §2

Experiment [13] has the same target. In words: ELISA on commercial eCG, antibody at 1 µg/ml. The procedure: as §1, §2
For experiment [14] the target is unchanged. In words: ELISA on purified eCG (6000 IU/mg).

Positions count from the first letter of the chain named.

T5 sequence (P01220 25-120 limits assumed, chain 1 of 2): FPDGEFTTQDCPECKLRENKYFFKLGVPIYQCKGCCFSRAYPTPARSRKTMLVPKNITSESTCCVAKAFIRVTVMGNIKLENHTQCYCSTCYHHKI
T5 sequence (P08751 21-169 limits assumed, chain 2 of 2): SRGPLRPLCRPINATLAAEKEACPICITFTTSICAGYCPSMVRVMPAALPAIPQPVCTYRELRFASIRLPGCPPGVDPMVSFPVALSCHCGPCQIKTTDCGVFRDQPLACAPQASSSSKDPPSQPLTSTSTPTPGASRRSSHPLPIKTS

B1: monoclonal antibody 9A4 A7 D3 (hybridoma CNCM I-4333) (antibody, V domains shown)
VH: EVQLQESGAELVRPGTSVKISCKASGYTFTNYWLGWVKQRPGHGLEWIGDIYPGGGYTNYNEKFKGKATLTADTSSSTAYMQLSSLTSEDSAVYFCARTPLYGSSYGGFAYWGQGTLVTVSA
VL: KTQTTSSLSASLGDRVTISCSASQGISNYLNWYQQKPDGTVKLLIYYTSSLHSGVPSRFSGSGSGTDYSLTISNLEPEDIATYYCQQYSKLPWTFGGGTKLEIK
notes: Hybridoma antibody raised against ovine LH; The VL as determined begins KTQTTSS; also called MAb D3; IgM D3
B1: the “percentage of cross reaction (OD hormone tested / OD ovine hormone x 100)” value in experiment [1] came out at 100%; in [2] it was 460%; in experiment [3] it was 100%; in experiment [4], 170%; in experiment [5], 72%; in experiment [6], 121%. Moreover, the “percentage of cross reaction (OD hormone tested / OD ovine hormone x 100)” value in experiment [9] and in [10] was 100% in each case. The “potentiating effect on cAMP secretion (in vitro bioassay)” value in experiment [7] and in [8] was 150% in each case. Also, in [11], the binding result is “no binding (tested: 10 µg/ml and 1 µg/ml)”. Further, the figures for the OD in experiment [12] and in experiment [13] were 0.091 OD and 0.102 OD, respectively.

B2: monoclonal antibody 9A4 D4 B6 (hybridoma CNCM I-4334) (antibody, V domains shown)
VH: B1 VH with E6Q
VL: DIVMTQATSSLSASLGDRVTISCSASQGISNYLNWYQQKPDGTVKLLIYYTSSLHSGVPSRFSGSGSGTDYSLTISNLEPEDIATYYCQQYSKLPWTFGGGTKLEIK
notes: Hybridoma antibody raised against ovine LH; also called MAb B6; IgM B6
Consider B2, for which the “percentage of cross reaction (OD hormone tested / OD ovine hormone x 100)” value in experiment [1] is 137%; in [2] it was 430%; in [3] it was 100%; in experiment [4], 168%; in experiment [5] it was 97%; in [6], 122%. The “percentage of cross reaction (OD hormone tested / OD ovine hormone x 100)” value in [9] and in experiment [10] was 100% in each case. For the same molecule, the “potentiating effect on cAMP secretion (in vitro bioassay)” value in [7] and in experiment [8] was 150% each time. The binding result in experiment [11] was “no binding (tested: 10 µg/ml and 1 µg/ml)”. For the same molecule, the OD in experiment [12] came out at 0.088 OD; in experiment [13] it was 0.078 OD.

B3: monoclonal antibody 1A6 C4 G11 (hybridoma CNCM I-4332) (antibody, V domains shown)
VH: B1 VH with Q3K, E6Q
VL: B2 VL with V3Q, A7T
notes: Hybridoma antibody raised against ovine LH; also called MAb G11; IgM G11
In the case of B3, the “percentage of cross reaction (OD hormone tested / OD ovine hormone x 100)” value came out at 230% in experiment [1]; 380% in experiment [2]; 113% in experiment [3]; 140% in experiment [4]; 68% in [5]; 100% in experiment [6]. Besides, the “percentage of cross reaction (OD hormone tested / OD ovine hormone x 100)” value in experiment [9] and in [10] was 100% throughout. Besides, the values for the OD in [12] and in experiment [13] were 0.09 OD and 0.088 OD, respectively. In addition, the binding result in experiment [14] was “no binding”.
